In assay [1] the target is T1, recombinant human LIGHT-214E, FLAG-tagged extracellular domain (human).
T1 chain: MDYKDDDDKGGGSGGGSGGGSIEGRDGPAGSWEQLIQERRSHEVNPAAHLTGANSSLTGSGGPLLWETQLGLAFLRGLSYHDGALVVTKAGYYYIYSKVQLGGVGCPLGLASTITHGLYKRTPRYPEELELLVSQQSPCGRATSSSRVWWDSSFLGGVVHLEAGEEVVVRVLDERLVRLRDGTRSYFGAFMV
As to the kind of experiment: cell-based or functional assay.

Assay [2] concerns the target T2, recombinant human LIGHT-214K, FLAG-tagged extracellular domain (human).
T2 construct: the IgK leader peptide is marked only by underlining (not visible here), so its residues were not removed; Trimer
T2 chain: T1 chain with E166K
Briefly: SPR ProteOn, mAb captured on anti-mouse IgG, LIGHT 256 nM, 25 C, apparent affinity. On the procedure:
(§1) SPR analysis was carried out using the ProteOn™ XPR36 Array System (BioRad). Anti-mouse IgG (GE Healthcare BR-1008-38) was immobilised on a GLC biosensor surface using amine coupling, the surface was then blocked using 1M ethanolamine. […] Apparent affinities for the LIGHT-antibody interaction were determined using the 1:1 model inherent to the ProteOn XPR36 analysis software. The assay was run using HBS-EP (Teknova) as running buffer and carried out at 25° C.

For assay [3], the target named is T1, recombinant human LIGHT-214E, …. As to the kind of experiment: HTRF competition, HVEM-Fc binding to Flag-hLIGHT-214E. On the procedure: (§2) The following methods were carried out with a titration of inhibitor in order to establish the clone potency as measured by IC50 values in the assay. 5 μl of Flag-tagged hLIGHT (in-house) diluted to 2.5 nM final concentration (10 nM working concentration) in HTRF buffer with 5 μl of a titration of antibody purified from hybridoma supernatant diluted in HTRF assay buffer from 300 nM final (1200 nM working concentration) was pre-incubated for 1 hour at room temperature. To wells used to define total binding, 5 μl of LIGHT (10 nM working, 2.5 nM final) and 5 μl of hybridoma maintaining media (HMM,)) were added. To wells used to define non specific binding (receptor only) 10 μl of HMM was added. Total and non specific binding wells were pre-incubated for 1 hr at RT in the same plate as wells containing titration of inhibitor.
(§3) LIGHT receptor was diluted in HTRF assay buffer and added to all wells, 5 μl/well of HVEM-Fc or LTβR-Fc (R&D systems) at 1.2 nM for HVEM (0.3 nM final) and 0.4 nM for LTβR (0.1 nM final).
(In TR-FRET formats the signal depends on donor and acceptor labels being close together.)

Assay [4] has the same target. As to the kind of experiment: HTRF competition, LTβR-Fc binding to Flag-hLIGHT-214E. Here is the method: as §2, §3
Assay [5] concerns the target human LIGHT-214E, full length, expressed on the surface of CHO-S cells (human, UniProt O43557 1-240). As to the kind of experiment: flow cytometry, CHO-S cells expressing hLIGHT-214E. (In general: A flow cytometer gives signals particle by particle.)
For assay [6], the target named is T1, recombinant human LIGHT-214E, …. Briefly: HTRF competition, AlexaFluor 647 LTβR-Fc binding to Flag-hLIGHT-214E. Here is the method: as §2
(§4) The final IgG4(PE) format lead panel was analysed for neutralization activity as in Example 3. Antibodies were tested for their ability to neutralize LIGHT binding to its receptors, HVEM and LTβR, in an HTRF assay. Antibodies were also tested for their ability to neutralize LIGHT-induced IL-8 release by HT29 colon carcinoma cells.
(§5) HTRF assays were performed as per Example 3, with the following modifications: HVEM-Fc and LTβR-Fc were labelled with AlexaFluor 647, and an anti-Flag K antibody (Cisbio) was used for detection.

Assay [7] has the same target. As to the kind of experiment: HTRF competition, AlexaFluor 647 HVEM-Fc binding to Flag-hLIGHT-214E. On the procedure:
as §2, §4, §5

For assay [8], the target named is T3, rabbit LIGHT protein, FLAG-tagged extracellular domain (rabbit).
T3 chain: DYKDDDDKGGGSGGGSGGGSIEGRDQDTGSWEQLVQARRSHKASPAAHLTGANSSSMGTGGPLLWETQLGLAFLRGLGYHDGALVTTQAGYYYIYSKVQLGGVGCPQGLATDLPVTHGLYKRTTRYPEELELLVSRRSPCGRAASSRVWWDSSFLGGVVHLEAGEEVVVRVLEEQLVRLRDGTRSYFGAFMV
As to the kind of experiment: SPR ProteOn, mAb captured on anti-human IgG, 25 C. On the procedure: This created a capture surface suitable for capturing human antibodies. The LIGHT antibodies were captured on this anti-human IgG surface, and then human and rabbit LIGHT proteins were passed over captured LIGHT Abs at a concentration of 200 nM. A buffer injection was used to double reference the LIGHT binding sensorgrams. The assay was run at 25° C., using HBS-EP as running buffer.

For assay [9], the target named is T1, recombinant human LIGHT-214E, …. As to the kind of experiment: cell-based or functional assay.
Assay [10] deals with T4, recombinant cynomolgus monkey LIGHT, FLAG-tagged extracellular domain (cynomolgus (Macaca fascicularis), UniProt E9NVF7 59-240).
T4 construct: extracellular domain; also called cynomolgus LIGHT; cyno LIGHT
As to the kind of experiment: SPR ProteOn, mAb captured on anti-mouse IgG, LIGHT 256 nM, 25 C, apparent affinity. Here is the method:
as §1

The target in assay [11] is T1, recombinant human LIGHT-214E, …. The description is as above. Here is the method:
as §1

Another assay addresses T5, mouse LIGHT (mouse, UniProt Q9QYH9 72-239, limits assumed).
T5 construct: also called murine LIGHT
T5 sequence (looked up): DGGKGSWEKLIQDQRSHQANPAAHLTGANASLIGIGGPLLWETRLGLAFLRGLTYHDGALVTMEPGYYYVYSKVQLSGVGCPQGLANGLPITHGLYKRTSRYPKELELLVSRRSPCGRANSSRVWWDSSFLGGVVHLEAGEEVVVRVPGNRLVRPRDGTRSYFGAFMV
As to the kind of experiment: SPR ProteOn, mAb captured on anti-mouse IgG.

As a reminder, the IC50 is the concentration that inhibits the measured activity by half.

Changes are numbered by the printed parent chain. Read-outs that look alike come from different tables or passages of the source.

B1: 31A10 (purified from hybridoma supernatant) (antibody, V domains shown)
VH: QVQLQESGPGLVKPSGTLSLTCAVSGGSISSINWWNWVRQPPGKGLEWIGEVSHSGITNYNPSLKSRVTMSVDKAKNQFSLKLNSVTAADTAVYYCARERAVADYHGMDVWGQGTTVTVSS
VL: AIQLTQSPSSLSASVGDRVTITCRASQGISSALAWFQQKPGKPPKLLIFDASDLESGVSSRFSGSGSGTDFTLTISSLQPGDFATYYCQQFNSYPITFGQGTRLEIK
notes: Murine constant / human variable chimeric IgG, kappa, Protein G purified from hybridoma supernatant
On to B1, for which the “HT29 IL-8 release, IC50” value in assay [1] was 0.217 nM. In addition, the Kd in assay [2] turned out to be 0.349 nM. In addition, the IC50 in assay [3] stood at 0.662 nM; in [4], 1.45 nM. Further, the binding result in [5] is “binds”.

B2: 31A10 in human IgG4(PE) format (antibody, V domains shown)
VH: B1 VH
VL: B1 VL
Take B2: the IC50 was found to be 2.19 nM in [6] and 1.15 nM in assay [7]. Besides, in assay [8], the binding result is reported as “binds”. Moreover, the “HT29 IL-8 release, IC50” value in [9] came to 0.29 nM.

B3: 29C09 (purified from hybridoma supernatant) (antibody, V domains shown)
VH: QEQLVQSGAEVKKPGASVKVSCKASGYTFTSYDINWVRQATGQGLEWMGWMNPNSGYTGYAQKFQGRVTMTRNTSIRTVYMELSSLRSEDTAVYYCARGGETFDIWGQGTMVTVSS
VL: SYELTQPPSVSVSPGQTARITCSGDALPKKYAYWYQQKSGQAPVLVIYEDSKRPSGIPERFSGSSSGTMATLTISGAQVEDEADYYCYSTDSSDNHSVFGTGTKVTVL
notes: Murine constant / human variable chimeric IgG, lambda, Protein G purified from hybridoma supernatant
With B3, the “HT29 IL-8 release, IC50” value in assay [1] was 0.33 nM. In addition, the Kd in assay [10] is 2.28 nM; in assay [2] it was 0.605 nM; in assay [11] it was 0.311 nM. The figures for the binding result (with mouse LIGHT; in assay [5]) were “no binding” and “binds”, respectively. The results for the IC50 in assay [3] and in assay [4] were 0.922 nM and 1.55 nM, respectively.

B4: 42A02 (purified from hybridoma supernatant) (antibody, V domains shown)
VH: EVQLVESGGGLVQPGGSLRLSCAASGFTFSSYVMSWVRQAPGKGLEWVSVISSSGVTTYYADSVKGRFTISRDNSKNTLYLQMNSLRAEETAVYYCAKGNYGSGSFCDYWGQGTPVTVSS
VL: SYVLTQPPSVSVAPGKTARITCGGNNIGSKSVHWYQQRPGQAPILVIYYDSDRPSGIPERFSGSNSGNSATLTISRVEAGDEADYHCQVWESSSDHPVFGGGTKLTVL
notes: as for B3
B4: the “HT29 IL-8 release, IC50” value in assay [1] amounted to 0.917 nM. Further, the Kd in [10] worked out at 0.084 nM; in assay [2], 0.161 nM; in assay [11] it was 0.062 nM. Besides, the binding result is reported as “no binding” with mouse LIGHT and “binds” in [5]. Moreover, the IC50 in assay [3] worked out at 0.898 nM; in assay [4], 1.65 nM.

B5: 62C01 (purified from hybridoma supernatant) (antibody, V domains shown)
VH: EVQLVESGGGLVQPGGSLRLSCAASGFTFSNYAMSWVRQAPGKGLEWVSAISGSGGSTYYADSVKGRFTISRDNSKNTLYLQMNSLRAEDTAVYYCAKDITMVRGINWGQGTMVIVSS
VL: DIQMTQSPSSVSASVGDRVTITCRASQGISNWLAWYQQKPGKAPKLLIFAASSLQSGVPSRFSGSGSGTDFTLTISSLQPEDFATYYCQQSNSFPLTFGGGTKVEIK
notes: as for B1
In the case of B5, the “HT29 IL-8 release, IC50” value in [1] came out at 0.578 nM. Moreover, the values for the Kd in assay [10], in assay [2] and in assay [11] were 1.64 nM, 23.6 nM and 1.02 nM, respectively. Moreover, the IC50 stood at 1.6 nM in assay [3] and 2.66 nM in [4]. For the same molecule, the binding result in assay [5] is given as “binds”.

B6: 14B09 (purified from hybridoma supernatant) (antibody, V domains shown)
VH: QVQLVQSGAEVKKPGASVKVSCRASGYTFTSYLMHWVRQAPGQRLEWMGWINVGNGNTKYSQKFQGRVTITRDTSASTAYMELSGLRSEDTAVYYCARNYYNWFDPWGQGTLVTVSS
VL: QSALTQPASVSGSPGQSITISCTGTSSDVGGYNYVSWYQQHPGKAPKLMIYDVSKRPSGVSNRFSGSKSGNTASLTISGLQAEDEADYYCFSYAGSSTVVFGGGTKLTVL
notes: as for B3
Regarding B6, the “HT29 IL-8 release, IC50” value in assay [1] is 1.31 nM. In addition, the Kd amounted to 0.156 nM in assay [10], 3.37 nM in assay [2] and 0.492 nM in assay [11]. Moreover, the results for the binding result (with mouse LIGHT; in assay [5]) were “no binding” and “binds”, respectively. For the same molecule, the results for the IC50 in assay [3] and in assay [4] were 0.895 nM and 1.57 nM, respectively.

B7: 13H04 (purified from hybridoma supernatant) (antibody, V domains shown)
VH: QVQLVQSGAEVKKPGASVKVSCKASGYTFTSYGISWVRQAPGQGLEWMGWISAHNANTNYAQKLQGRVTMTTDTSTSTAYMELRSLRSDDTAMYYCARLYRNWFDPWGQGTLVTVSS
VL: B6 VL with F91C, V99L, V100L
notes: as for B3
As for B7, the “HT29 IL-8 release, IC50” value in [1] stood at 1.33 nM. Also, the Kd is 0.561 nM in assay [10], 1.57 nM in assay [2] and 0.881 nM in assay [11]. Moreover, the binding result with mouse LIGHT is “no binding”; in assay [5], “binds”. Also, the IC50 came out at 1.09 nM in assay [3] and 1.97 nM in assay [4].

B8: 144F05 (purified from hybridoma supernatant) (antibody, V domains shown)
VH: QVQLQESGPGLVKPSGTLSLTCAVSGGSISSTHWWNWVRQPPGKGLEWIGEIYHSGSTNCNPSLKSRVTISVDKSKNQFSLKMNSVTAADTAVYYCTRGGAAAGTNYGLDVWGQGTTVTVSS
VL: not shown
notes: as for B1
Take B8: in assay [1], the “HT29 IL-8 release, IC50” value worked out at 2.75 nM. The Kd in assay [10] turned out to be 2.89 nM; in [2], 5.78 nM; in assay [11], 3.25 nM. Further, the figures for the binding result (in the assay with mouse LIGHT; in assay [5]) were “no binding” and “binds”, respectively. The figures for the IC50 in assay [3] and in assay [4] were 1.34 nM and 3.32 nM, respectively.

The values above are taken from patent publication US20170320956A1 (KYMAB, published 2017).
